From paper PMC3643951 (PLoS ONE, 2013)

Biological target: T1, S100A1 protein, dansyl-labelled (human, UniProt P23297 1-94, dansyl (DNS) label from dansyl chloride, site not stated)
T1 construct: human S100A1; cDNA cloned into pET28b; No tag is mentioned; purification was by Phenyl Sepharose; also called DNS-S100A1; Ca2+-S100A1; source: E. coli BL21, purified (Phenyl Sepharose CL4B, Superdex 75), labelled with dansyl chloride
T1 sequence (looked up): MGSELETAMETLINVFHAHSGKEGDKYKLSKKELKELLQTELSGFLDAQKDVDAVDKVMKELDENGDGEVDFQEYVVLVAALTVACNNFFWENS
Assay: fluorescence polarisation; steady-state fluorescence anisotropy; TRPC6 construct titrated into DNS-S100A1 solution (232 µM as printed) in presence of calcium ions; excitation 340 nm, emission 520 nm
Details: both partners purified

Row | Binder | Kd
1 | TRPC6(801–878) K856A (domain or fragment, rat, UniProt Q99N78 801-878, looked up, C-terminal part of rat TRPC6, amino acids 801-878, with K856A; Same construct as m1 (pET42b) with the point mutation; source: E. coli Rosetta, purified (Chelating Sepharose Fast Flow, Superdex 75)) NKRNEEKKFGILGSHEDLSKFSLDRNQLAHNKQSSTRSSEDFHLNSFSNPPRQYQAIMKRLIKRYVLQAQIDKESDEV | 760 nM
2 | TRPC6(801–878) R852A/K859A/R860A (domain or fragment, rat, UniProt Q99N78 801-878, looked up, C-terminal part of rat TRPC6, amino acids 801-878, with R852A, K859A and R860A; Same construct as m1 (pET42b) with the triple substitution; also called triple mutation Arg852/Lys859/Arg860; source: E. coli Rosetta, purified (Chelating Sepharose Fast Flow, Superdex 75)) NKRNEEKKFGILGSHEDLSKFSLDRNQLAHNKQSSTRSSEDFHLNSFSNPPAQYQKIMAALIKRYVLQAQIDKESDEV | 2620 nM
3 | TRPC6(801–878) R864A (domain or fragment, rat, UniProt Q99N78 801-878, looked up, C-terminal part of rat TRPC6, amino acids 801-878, with R864A; Same construct as m1 (pET42b) with the point mutation; source: E. coli Rosetta, purified (Chelating Sepharose Fast Flow, Superdex 75)) NKRNEEKKFGILGSHEDLSKFSLDRNQLAHNKQSSTRSSEDFHLNSFSNPPRQYQKIMKRLIKAYVLQAQIDKESDEV | 920 nM
4 | TRPC6(801–878) K859A/R860A/R864A (domain or fragment, rat, UniProt Q99N78 801-878, looked up, C-terminal part of rat TRPC6, amino acids 801-878, with K859A, R860A and R864A; Same construct as m1 (pET42b) with the triple substitution; also called triple substitution Lys859/Arg860/Arg864; source: E. coli Rosetta, purified (Chelating Sepharose Fast Flow, Superdex 75)) NKRNEEKKFGILGSHEDLSKFSLDRNQLAHNKQSSTRSSEDFHLNSFSNPPRQYQKIMAALIKAYVLQAQIDKESDEV | 400 nM
5 | TRPC6(801–878) R852A (domain or fragment, rat, UniProt Q99N78 801-878, looked up, C-terminal part of rat TRPC6, amino acids 801-878, with R852A; Same construct as m1 (pET42b) with the point mutation; also called TRPC6 single mutant R852A; source: E. coli Rosetta, purified (Chelating Sepharose Fast Flow, Superdex 75)) NKRNEEKKFGILGSHEDLSKFSLDRNQLAHNKQSSTRSSEDFHLNSFSNPPAQYQKIMKRLIKRYVLQAQIDKESDEV | 480 nM
